According to patent US12215162B2, “BAFF-R targeted chimeric antigen receptor-modified T-cells and uses thereof” (CITY OF HOPE, priority 2016, dated 2025):

B1: Humanized HC1 + LC2: humanized C90 variant, heavy chain variant 1 with light chain variant 2 (antibody, V domains shown)
VH: QVQLQESGPGLVKPSQTLSLTCTVSGDSITSGYWNWIRQHPGKGLEYIGYISYSGSTYYNPSLKSRVTISRDTSKNQFSLKLSSVTAADTAVYYCASPNYPFYAMDYWGQGTLVTVSS
VL: DIVLTQSPATLSLSPGERATLSCRASESVDNYGISFMNWFQQKPGQAPRLLIYAASNRATGIPARFSGSGSGTDFTLTISSLEPEDFAVYYCQQSKEVPWTFGGGTKVEIKRTV
B2: Humanized HC3 + LC2: humanized C90 variant, heavy chain variant 3 with light chain variant 2 (antibody, V domains shown)
VH: EVQLQESGPGLVKPSETLSLTCSVSGDSITSGYWNWIRQPPGKGLEYIGYISYSGSTYYNPSLKSRVTISRDTSKNQYSLRLSSVTAADTALYYCASPNYPFYAMDYWGQGTRVTVSS
VL: DIVLTQSPATLSLSPGERATLSCRASESVDNYGISFMNWFQQKPGQAPRLLIYAASNRATGIPARFSGSGSGTDFTLTISSLEPEDFAVYYCQQSKEVPWTFGGGTKVEIKRTV
B3: Humanized HC3 + LC3: humanized C90 variant, heavy chain variant 3 with light chain variant 3 (antibody, V domains shown)
VH: EVQLQESGPGLVKPSETLSLTCSVSGDSITSGYWNWIRQPPGKGLEYIGYISYSGSTYYNPSLKSRVTISRDTSKNQYSLRLSSVTAADTALYYCASPNYPFYAMDYWGQGTRVTVSS
VL: DIVMTQSPSSLSASVGDRVTITCRASESVDNYGISFMNWFQQKPGKAPKLLIYAASNLGSGVPSRFSGSGSGTDFTLTISSLQPEDFATYYCQQSKEVPWTFGQGTKVEIKRTV
B4: Humanized HC2 + LC1 (antibody, V domains shown)
VH: EVQLQESGPGLVKPSQTLSLTCTVSGDSITSGYWNWIRQHPGKGLEYIGYISYSGSTYYNPSLKSRVTISRDTSKNQYSLKLSSVTAADTAVYYCASPNYPFYAMDYWGQGTLVTVSS
VL: EIVLTQSPATLSLSPGERATLSCRASESVDNYGISFLNWFQQKPGQAPRLLIYAASNRATGIPARFSGSGSGTDFTLTISSLEPEDFAVYYCQQSKEVPWTFGGGTKVEIKRTV
B5: Humanized HC3 + LC1 (antibody, V domains shown)
VH: EVQLQESGPGLVKPSETLSLTCSVSGDSITSGYWNWIRQPPGKGLEYIGYISYSGSTYYNPSLKSRVTISRDTSKNQYSLRLSSVTAADTALYYCASPNYPFYAMDYWGQGTRVTVSS
VL: EIVLTQSPATLSLSPGERATLSCRASESVDNYGISFLNWFQQKPGQAPRLLIYAASNRATGIPARFSGSGSGTDFTLTISSLEPEDFAVYYCQQSKEVPWTFGGGTKVEIKRTV
B6: Humanized HC1 + LC3: humanized C90 variant, heavy chain variant 1 with light chain variant 3 (antibody, V domains shown)
VH: QVQLQESGPGLVKPSQTLSLTCTVSGDSITSGYWNWIRQHPGKGLEYIGYISYSGSTYYNPSLKSRVTISRDTSKNQFSLKLSSVTAADTAVYYCASPNYPFYAMDYWGQGTLVTVSS
VL: DIVMTQSPSSLSASVGDRVTITCRASESVDNYGISFMNWFQQKPGKAPKLLIYAASNLGSGVPSRFSGSGSGTDFTLTISSLQPEDFATYYCQQSKEVPWTFGQGTKVEIKRTV
B7: Humanized HC1 + LC1 (antibody, V domains shown)
VH: QVQLQESGPGLVKPSQTLSLTCTVSGDSITSGYWNWIRQHPGKGLEYIGYISYSGSTYYNPSLKSRVTISRDTSKNQFSLKLSSVTAADTAVYYCASPNYPFYAMDYWGQGTLVTVSS
VL: EIVLTQSPATLSLSPGERATLSCRASESVDNYGISFLNWFQQKPGQAPRLLIYAASNRATGIPARFSGSGSGTDFTLTISSLEPEDFAVYYCQQSKEVPWTFGGGTKVEIKRTV

Each molecule was assayed against T1, recombinant extracellular domain of human BAFF-R (Homo sapiens, UniProt Q96RJ3) (assay: Biacore analysis of binding affinity of humanized BAFF-R antibody variants).
T1 construct: The antigen was commercial, recombinant extracellular domain of human BAFF-R; purchased
Excerpt: The chimeric antibody, clone 90, was humanized while retaining its binding specificity and cytotoxic effects. Through computational analysis of the CDRs and predicted structure, three variants of the heavy and three variants of the light chain were produced with varying degrees of likeness to human antibodies. A total of nine combinational variants was constructed from the humanized heavy and light chains.
The chimeric anti-BAFF-R antibody C90 was humanized with several variants. The humanization process took into consideration and analysis of the variable region and specifically the CDRs of the chimeric antibody. From there, three variants for each heavy and light chain was developed with varying degrees of human-likeness ranging from 1 the most human to 3 the most conservative to the chimeric. The variants were combined to produce 9 variants. Biacore analysis was performed on each variant as well as the chimeric parental C90 to determine their equilibrium dissociation constant KD. The antigen was commercial, recombinant extracellular domain of human BAFF-R.

Molecule | kdis | kon
B1 | 0.0023 s⁻¹ | 620000 M⁻¹ s⁻¹
B2 | 0.0037 s⁻¹ | 1.2e+06 M⁻¹ s⁻¹
B3 | 0.0023 s⁻¹ | 680000 M⁻¹ s⁻¹
B4 | 0.002 s⁻¹ | 770000 M⁻¹ s⁻¹
B5 | 0.0031 s⁻¹ | 820000 M⁻¹ s⁻¹
B6 | 0.0021 s⁻¹ | 410000 M⁻¹ s⁻¹
B7 | 0.0024 s⁻¹ | 610000 M⁻¹ s⁻¹
